Assay results from publication doi:10.1101/2020.07.08.194076v1.

What was measured:
purified protein [1] = substrate: C=C(C)CCO[P@@](=O)(O)OP(=O)(O)O; assay: purified protein; conditions: co-substrate 100 µM DMAPP
purified protein [2] = substrate: CC(C)=CCOP(=O)(O)OP(=O)(O)O; assay: purified protein; conditions: co-substrate 100 µM IPP

Row | Protein | Km (purified protein [1]) [µM] | Km (purified protein [2]) [µM]
1 | AtG11 (Arabidopsis thaliana) (protein) SSIVSSSVVTKEDNLRQSEPSSFDFMSYIITKAELVNKALDSAVPLREPLKIHEAMRYSLLAGGKRVRPVLCIAACELVGGEESTAMPAACAVEMIHTMSLIHDDLPCMDNDDLRRGKPTNHKVFGEDVAVLAGDALLSFAFEHLASATSSDVVSPVRVVRAVGELAKAIGTEGLVAGQVVDISSEGLDLNDVGLEHLEFIHLHKTAALLEASAVLGAIVGGGSDDEIERLRKFARCIGLLFQVVDDILDVTKSSKELGKTAGKDLIADKLTYPKIMGLEKSREFAEKLNREARDQLLGFDSDKVAPLLALANYIAYRQN | 38.49 ± 4.94 | 32.86 ± 4.86
2 | SlG2 (Solanum lycopersicum) (protein) IATNEKVVMEKEEFNFKVYVAEKAICVNKALDEAIMVKDPPKIHEAMRYSLLAGGKRVRPMLCLAACELVGGNQGNAMAAACAVEMIHTMSLIHDDLPCMDDDDLRRGKPTNHKVYGEDVAVLAGDALLAFAFEYLATATTGVPPSRILVAVAELAKSVGTEGLVAGQVADLACTGNPNVGLEMLEFIHIHKTAALLEASVVIGAILGGGADEEVDKLRRFAQCIGLLFQVVDDILDVTKSSSELGKTAGKDLAVDKTTYPKLLGLEKAKEFAAELNGEAKQQLAAFDSHKAAPLIALADYIANRQN | 79.75 ± 8.33 | 49.55 ± 5.31
3 | SlG1 (Solanum lycopersicum) (protein) VSSKAEKFILPEFEFQEYMVTKAIKVNKALDEAIPMQEPIKVHEAMRYSLLAGGKRVRPILCMASCEVVGGDESLAIPAACAVEMIHTMSLVHDDLPCMDNDDLRRGKPTNHKIFGENTAVLAGDALLSLAFEHVATKTQNVPPQRVVQAIGELGSAVGSEGLVAGQIVDLASEGKQVSLTELEYIHHHKTSKLLEAAVVCGAIMGGGNEVDVERMRSYARCIGLLFQVVDDILDVTKSSDELGKTAGKDLITDKATYPKLMGLEKARQYAGELMAKAMNELSYFDYAKAAPLYHIASYIANRQN | 74.18 ± 7.55 | 31.82 ± 2.92
